Experimental data from publication PMC10709064, “The leucine zipper domain of the transcriptional repressor Opi1 underlies a signal transduction mechanism regulating lipid synthesis” (The Journal of Biological Chemistry, 2023).

B1: MBP-N-Opi1^WT (maltose-binding protein fused to the N-terminal Opi1^1-190 polypeptide) (domain or fragment, S. cerevisiae, UniProt P21957 1-190, looked up)
chain: MSENQRLGLSEEEVEAAEVLGVLKQSCRQKSQPSEDVSQADKMPASESSTTPLNILDRVSNKIISNVVTFYDEINTNKRPLKSIGRLLDDDDDEHDDYDYNDDEFFTNKRQKLSRAIAKGKDNLKEYKLNMSIESKKRLVTCLHLLKLANKQLSDKISCLQDLVEKEQVHPLHKQDGNARTTTGAGEDET
notes: Opi1, S. cerevisiae, N terminus from aa1 to aa190 (N-Opi1), holds the leucine zipper (aa 139-166); pMAL-c expression vector; also called N-Opi1^1-190; source: for SEC further run on Superdex 200 Increase; not shown: MBP, N-terminal, kept

Tests used:
[1] = biological target: the molecule itself; assay: SEC; 0.5 mg of affinity-purified MBP fusion on Superdex 200 Increase 10/300 GL, 20 mM Tris-HCl pH 7.4, 150 mM NaCl, 0.5 ml/min; molecular weights estimated from calibration markers
[2] = biological target: T1, MBP-N-Opi1^N150D (S. cerevisiae, UniProt P21957 1-190, N150D); assay: pull-down; as the pull-down with alternate tags, but binding reactions carried out at decreasing reactant concentrations (relative volume of the binding reaction varied); prey detected by Western blot; settings: both partners purified
T1 construct: Opi1, S. cerevisiae, N terminus from aa1 to aa190 (N-Opi1) with N150D; pMAL-c expression vector; amplified from mutant OPI1 DNA template; source: for SEC further run on Superdex 200 Increase; not shown: MBP, N-terminal, kept
T1 sequence (looked up): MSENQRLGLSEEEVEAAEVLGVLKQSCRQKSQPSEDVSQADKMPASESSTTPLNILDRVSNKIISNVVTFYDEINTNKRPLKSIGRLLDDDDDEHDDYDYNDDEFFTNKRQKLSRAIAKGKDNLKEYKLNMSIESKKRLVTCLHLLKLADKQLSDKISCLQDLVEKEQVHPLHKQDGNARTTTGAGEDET

[3] = biological target: T2, MBP-N-Opi1^3L (L146A, L153S, L160A) (S. cerevisiae, UniProt P21957 1-190, L146A | L153S | L160A); assay: as above; settings: both partners purified
T2 construct: Opi1, S. cerevisiae, N terminus from aa1 to aa190 (N-Opi1) with the 3L mutations L146A L153S L160A; pMAL-c expression vector; not shown: MBP, N-terminal, kept
T2 sequence (looked up): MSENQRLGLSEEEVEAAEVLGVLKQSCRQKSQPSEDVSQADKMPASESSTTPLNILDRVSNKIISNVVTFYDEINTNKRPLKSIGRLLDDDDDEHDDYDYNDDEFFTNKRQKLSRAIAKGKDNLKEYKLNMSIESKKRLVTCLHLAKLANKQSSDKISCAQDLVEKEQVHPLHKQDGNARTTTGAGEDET

[4] = biological target: B1; assay: as above; settings: both partners purified
[5] = biological target: T3, GST-N-Opi1^WT (glutathione-S-transferase fused to Opi1 aa1-190) (S. cerevisiae, UniProt P21957 1-190); assay: pull-down; around 0.5 ug bait on amylose resin or glutathione-Sepharose with 1.5 ug prey of the alternate tag in 100 ul binding buffer (20 mM Tris-HCl pH 8, 150 mM NaCl, 1 mM EDTA, 1 mM DTT, 20% glycerol, 0.05% Triton X-100) with 50 ug/ml BSA, 2 h at 4 C; bait eluted with its ligand, prey detected by Western blot against MBP or GST; settings: both partners purified
T3 construct: Opi1, S. cerevisiae, N terminus from aa1 to aa190 (N-Opi1), holds the leucine zipper (aa 139-166); pGEX-4T-1 expression vector; also called N-Opi1^1-190; not shown: GST, N-terminal, kept
T3 sequence (looked up): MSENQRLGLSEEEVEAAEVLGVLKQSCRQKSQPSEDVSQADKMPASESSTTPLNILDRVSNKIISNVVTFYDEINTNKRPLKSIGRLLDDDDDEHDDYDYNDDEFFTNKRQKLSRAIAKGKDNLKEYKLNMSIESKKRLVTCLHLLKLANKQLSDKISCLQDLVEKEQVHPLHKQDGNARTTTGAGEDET

[6] = biological target: T4, GST-N-Opi1^N150D (S. cerevisiae, UniProt P21957 1-190, N150D); assay: pull-down; as the pull-down with alternate tags, but binding reactions carried out at decreasing reactant concentrations (relative volume of the binding reaction varied); prey detected by Western blot; settings: both partners purified
T4 construct: Opi1, S. cerevisiae, N terminus from aa1 to aa190 (N-Opi1) with N150D; pGEX-4T-1 expression vector; not shown: GST, N-terminal, kept
T4 sequence (looked up): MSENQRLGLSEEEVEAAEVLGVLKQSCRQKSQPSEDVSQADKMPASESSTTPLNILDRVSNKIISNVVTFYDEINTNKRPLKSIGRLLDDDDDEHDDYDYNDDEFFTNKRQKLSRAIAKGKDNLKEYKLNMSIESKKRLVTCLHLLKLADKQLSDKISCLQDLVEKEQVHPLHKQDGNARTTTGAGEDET

[7] = biological target: T5, GST-N-Opi1^3L (L146A, L153S, L160A) (S. cerevisiae, UniProt P21957 1-190, L146A | L153S | L160A); assay: as above; settings: both partners purified
T5 construct: Opi1, S. cerevisiae, N terminus from aa1 to aa190 (N-Opi1) with the 3L mutations L146A L153S L160A; pGEX-4T-1 expression vector; not shown: GST, N-terminal, kept
T5 sequence (looked up): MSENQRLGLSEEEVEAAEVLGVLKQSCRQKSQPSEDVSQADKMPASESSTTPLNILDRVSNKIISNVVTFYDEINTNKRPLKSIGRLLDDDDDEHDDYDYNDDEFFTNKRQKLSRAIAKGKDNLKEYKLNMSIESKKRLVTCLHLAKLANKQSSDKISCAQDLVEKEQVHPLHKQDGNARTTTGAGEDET

Binder: B1
- stoichiometry N [1]: ~2

B2: GST-C-Opi1^WT (glutathione-S-transferase fused to Opi1 aa291-404) (domain or fragment, S. cerevisiae, UniProt P21957 291-404, looked up)
chain: QQQQQQQQLLQQQLLQQQQQKRNKDGDDSASPSSSVTANGKVLILAKESLEMVRNVMGVVDSTLGKAEEWVKQKQEVKEMIRERFLQQQQQYRQQQQKDGNYVKPSQDNVDSKD
notes: Opi1, S. cerevisiae, C terminus from aa291 to aa404 (C-Opi1), holds the AID (aa 321-379); pGEX-4T-1 expression vector; also called C-Opi1^291-404; Opi1^291-404; not shown: GST, N-terminal, kept
- binding result [2]: binds
- binding result [3]: binds
- binding result [4]: binds

B3: MBP-C-Opi1^WT (maltose-binding protein fused to Opi1 aa291-404) (domain or fragment, S. cerevisiae, UniProt P21957 291-404, looked up)
chain: QQQQQQQQLLQQQLLQQQQQKRNKDGDDSASPSSSVTANGKVLILAKESLEMVRNVMGVVDSTLGKAEEWVKQKQEVKEMIRERFLQQQQQYRQQQQKDGNYVKPSQDNVDSKD
notes: Opi1, S. cerevisiae, C terminus from aa291 to aa404 (C-Opi1), holds the AID (aa 321-379); pMAL-c expression vector; also called C-Opi1^291-404; Opi1^291-404; not shown: MBP, N-terminal, kept
- binding result [5]: binds
- binding result [6]: binds
- binding result [7]: binds

B4: GST-C-Opi1^S339F (domain or fragment, S. cerevisiae, UniProt P21957 291-404, looked up)
chain: QQQQQQQQLLQQQLLQQQQQKRNKDGDDSASPSSSVTANGKVLILAKEFLEMVRNVMGVVDSTLGKAEEWVKQKQEVKEMIRERFLQQQQQYRQQQQKDGNYVKPSQDNVDSKD
notes: Opi1, S. cerevisiae, C terminus from aa291 to aa404 (C-Opi1) with S339F; pGEX-4T-1 expression vector; loss of function mutation known from earlier genetic work; not shown: GST, N-terminal, kept
- binding result [4]: binds

B5: GST-C-Opi1^V343E (domain or fragment, S. cerevisiae, UniProt P21957 291-404, looked up)
chain: QQQQQQQQLLQQQLLQQQQQKRNKDGDDSASPSSSVTANGKVLILAKESLEMERNVMGVVDSTLGKAEEWVKQKQEVKEMIRERFLQQQQQYRQQQQKDGNYVKPSQDNVDSKD
notes: Opi1, S. cerevisiae, C terminus from aa291 to aa404 (C-Opi1) with V343E; pGEX-4T-1 expression vector; loss of function mutation known from earlier genetic work; not shown: GST, N-terminal, kept
- binding result [4]: binds
